# Experiment: yeast display, Sf9 membrane polyspecificity reagent, FACS + sequencing; frameworks hold sequencing errors
# How it was run: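 Using colony PCR, genes from sorted yeast display clones were amplified, then sequenced on MiSeq at 2 × 250 and filtered by CDR length. The clones had been stained with 10% biotinylated, detergent-solubilized Sf9 membrane reagent for 1 hour at 4 °C and sorted by FACS into low and high (top ~1%) gates on anti-HA and streptavidin fluorescence. Polyreactivity labels come from the gate of origin.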
row,Sequence,polyreactivity (PSR sort gate)
1,QVQLVESGGGLVQAGGSLRLSCAASGYTFYQNTMGWYRQAPGKERELVADITRRGGSTYYADSVKGRFTISRDNAKNTVYLQINSLKPEDTAVYYCAARYGPWTGYATYRYASSRYNYWGQGTQVTVSS,high polyreactivity
2,QVQLVESGGGLVQAGGSLRLSCAASGYTFYRNAMGWYRQAPGKERELVAAIRDDGSTYYADSVKGRFTISRDNAKNTVYLQMNSLKPEDTAVYYCAAAIPRQYWFGISHRRYYYWGQGTQVTVSS,low polyreactivity
3,QVQLVESGGGLVQAGGSLRLSCAASGYTFYSNAMGWYRQAPRKERELVASIRSRGRSTYYADSVKGRFTISRDNAKNTVDLQMNSLKPEDTAVYYCAALPNKPAVYAYDYWGQGTQVTVSS,low polyreactivity
4,QVQLVESGGGLVQAGGSLRLSCAASGYTFYYAMGWYRQAPGKERELVAAISAGGGRTYYADSVKGRFTISRDNAKNTDYLQMNSLKPEDTAVYYCNRVYRLTAYGYDYWGQGTQVTVSS,high polyreactivity
5,QVQLVESGGGLVQAGGSLRLSCAASGYTIESYTMGWYREAPGKEREFVAVISSSDTSTSYADSVKGRFTISRDNAKNTVYLQMNSLKPEDTAFYYCAAYSSPYYITYYWYNYDYWGQGTQVTVSS,low polyreactivity
6,QVQLVESGGGLVQAGGSLRLSCAASGYTIIVNAMGWYRQAPGKERELVAAISWSSVSTYYADSVKGRFTISRDNAKNTVYLQMNSLKPEDTAVYYCAAEGYDYSQWFDYWGQGTQVTASS,high polyreactivity
7,QVQLVESGGGLVQAGGSLRLSCAASGYTIRYYAMGWYRQAPGKERELVAAISYSGGRTYYADSVKGRFTISRDNAKNTDYLQMNSLKPEDTAVYYCNAGYYSYRYRYGYDYWGQGTQVTVSS,high polyreactivity
8,QVQLVESGGGLVQAGGSLRLSCAASGYTLDGYAMGWYRQAPGKEREFVAAIPFRGGGTYYADSVKGRFTISRDNAKNTDYLQMNSLKPEDTAVYYCNADTYDPFPWGSDYWGQGTQVTVSS,high polyreactivity
9,QVQLVESGGGLVQAGGSLRLSCAASGYTLGPNTMGWYRQAPGKERELVATITYSGGSTYYADSVKGRFTISRDNAKNTVYLQMNSLKPEDTAVYYCAARYGSRRIPGSLGYWGQGTQVTVSS,high polyreactivity
10,QVQLVESGGGLVQAGGSLRLSCAASGYTLGVNAMGWSRQAPGKERELVAAINYIDTRTYYADSVKGRFTISRDNAKNTVYLKLNSLKPEDTAVYYCAARPYVPWVKRYYYWGQGTQVTVSS,low polyreactivity
11,QVQLVESGGGLVQAGGSLRLSCAASGYTLRPNGMGWYRQAPGKERELVAAISSGGSTYYADSVKGRFTISRDNAKNTVYLQMISLKPEDTAVYYCAAEYWYDYWGQGTQVTVSS,low polyreactivity
12,QVQLVESGGGLVQAGGSLRLSCAASGYTSRSNAMGWYRQAPGKERELVAAIRGGGNTKYADSVKWRFTISRDNANNTVYLQMNSLKPEDTAVYYCAVVTGSFRTRYTYYYWGQGTQVTVSS,high polyreactivity
13,QVQLVESGGGLVQAGGSLRLSCAASGYTSVGNAMGWYRPAPWKERELVAAITYNGGNTYYADSVKGRFRISRDNAKNTVYLQMNSLKPEDTAVSYCATDSQELASSRFDYWGQGTQVTVSS,low polyreactivity
14,QVQLVESGGGLVQAGGSLRLSCAASGYTSYTYTMGWYRQAPGKDRELVAAISRRSDSTYSDSVKGRVTISRDNAKNSVYLQMNSLKPEDTAVYYCAAVRVSYRSLSKSYYWGQGTQVTVSS,high polyreactivity
15,QVQLVESGGGLVQAGGSLRLSCAASGYTYSDNAMGWYRPAPGKERELVAAITSGVSTYYADSVKGRFTISRDNAKNTVYLQMNSPKPEDTAVYYCAKDVAVYADLYQGAPYGYWGQGTQVTVST,low polyreactivity
16,QVQLVESGGGLVQAGGSLRLSCAASISSINAMGWYRQAPGKERELVAAIRWSGSSTYYADSVKGRFTISRDNAKNTVYLQMNSLKPEDTAVYYCAADTTTGDRGFDYWGQGTQVTVSS,high polyreactivity
